Measured values taken from paper PMC12122834.

Assays:
Assay in all cases: EMSA
[1] = target: YoaA;chi R128A (HolC R128A) (Escherichia coli;Escherichia coli, UniProt P76257;P28905 1-636;1-147, |R128A)
[2] = target: SSB deltaC1 (Escherichia coli, UniProt P0AGE0 2-177, del178-178)
[3] = target: DinG;SSB (Escherichia coli;Escherichia coli, UniProt P27296;P0AGE0 1-716;2-178, |)
[4] = target: YoaA;chi (HolC);SSB (Escherichia coli;Escherichia …, UniProt P76257;P28905;P0AGE0 1-636;1-147;2-178, ||)
[5] = target: SSB (Escherichia coli, UniProt P0AGE0 2-178)
[6] = target: YoaA;chi (HolC) (Escherichia coli;Escherichia coli, UniProt P76257;P28905 1-636;1-147, |)
[7] = target: T1, DinG (Escherichia coli, UniProt P27296 1-716)
T1 sequence: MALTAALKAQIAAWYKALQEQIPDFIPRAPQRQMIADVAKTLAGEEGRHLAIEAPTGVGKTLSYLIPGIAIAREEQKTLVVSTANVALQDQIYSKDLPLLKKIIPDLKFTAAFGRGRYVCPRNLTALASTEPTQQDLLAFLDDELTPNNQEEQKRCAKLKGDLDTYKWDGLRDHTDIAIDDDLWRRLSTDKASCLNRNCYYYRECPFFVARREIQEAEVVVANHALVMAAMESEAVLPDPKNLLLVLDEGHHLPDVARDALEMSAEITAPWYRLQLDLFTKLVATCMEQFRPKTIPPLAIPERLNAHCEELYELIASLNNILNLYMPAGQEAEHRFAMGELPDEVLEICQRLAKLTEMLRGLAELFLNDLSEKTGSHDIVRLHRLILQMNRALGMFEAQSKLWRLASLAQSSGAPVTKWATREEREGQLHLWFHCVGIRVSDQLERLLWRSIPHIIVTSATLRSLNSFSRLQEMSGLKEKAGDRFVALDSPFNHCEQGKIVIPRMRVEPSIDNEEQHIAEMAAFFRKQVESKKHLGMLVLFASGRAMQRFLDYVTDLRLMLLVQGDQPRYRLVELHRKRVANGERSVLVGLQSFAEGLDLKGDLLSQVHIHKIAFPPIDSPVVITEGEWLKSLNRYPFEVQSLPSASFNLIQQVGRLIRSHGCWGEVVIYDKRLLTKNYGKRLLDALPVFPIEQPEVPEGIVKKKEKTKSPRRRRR

Measured: binding result

B1: ssT65 (S21) (ssDNA)
DNA: TTTTTTTTTTTTTTTTTTTTTTTTTTTTTTTTTTTTTTTTTTTTTTTTTTTTTTTTTTTTTTTTT
binds: all assays above
